From patent US20250084183A1

Molecular target: CD99 on RD-ES and SK-ES-1 Ewing sarcoma cells (UniProt P14209)
Assay: not stated (given with the antibody's description, refers to FIG. 57)

Kd: 10 nM
Substance: αCD99 antibody (clone: 12E7)
